# Numbering of substitutions follows the chain as printed.
# B1: LEAI.474 (other)
# chain: SPVDICTAKPRDIPMNPMCIYRSPEKKATEDEGSEQKIPEATNRRVWELSKANSRFATTFYQHLADSKNDNDNIFLSPLSISTAFAMTKLGACNDTLQQLMEVFKFDTISEKTSDQIHFFFAKLNCRLYRKANKASKLVSANRLFGDKSLTFNETYQDISELVYGAKLQPLDFKENAEQSRAAINKWVSNKTEGRITDVIPSEAINELTVLVLVNTIYFKGLWKSKFSPENTRKELFYKADGESCSASMMYQEGKFRYRRVAEGTQVLELPFKGDDITMVLILPKPEKSLAKVEKELTPEVLQEWLDELEEMMLVVHMPRFRIEDGFSLKEQLQDMGLVDLFSPEKSKLPGIVAEGRDDLYVSDAFHKAFLEVNEEGSEAAASTALEAQGRSLNPNRVTFKANRPFLVFIREVPLNTIIFMGRVANPCVK
# notes: also called DES.LEAI.474
# B2: LEAI.482 (other)
# chain: B1 chain with Q389H
# B3: LEAI.480 (other)
# chain: B1 chain with Q389Y
# Tests used:
# [1] = biological target: T1, thrombin (human, UniProt P00734 328-622); assay: cell-based or functional assay
# [2] = biological target: T2, factor Xa (human, UniProt P00742 41-179; P00742 235-488, limits assumed); assay: cell-based or functional assay
# T2 sequence (P00742 41-179 limits assumed, chain 1 of 2): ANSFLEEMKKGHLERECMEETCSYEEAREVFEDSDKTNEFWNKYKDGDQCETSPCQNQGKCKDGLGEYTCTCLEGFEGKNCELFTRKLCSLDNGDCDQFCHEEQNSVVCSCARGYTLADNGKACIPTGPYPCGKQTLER
# T2 sequence (P00742 235-488 limits assumed, chain 2 of 2): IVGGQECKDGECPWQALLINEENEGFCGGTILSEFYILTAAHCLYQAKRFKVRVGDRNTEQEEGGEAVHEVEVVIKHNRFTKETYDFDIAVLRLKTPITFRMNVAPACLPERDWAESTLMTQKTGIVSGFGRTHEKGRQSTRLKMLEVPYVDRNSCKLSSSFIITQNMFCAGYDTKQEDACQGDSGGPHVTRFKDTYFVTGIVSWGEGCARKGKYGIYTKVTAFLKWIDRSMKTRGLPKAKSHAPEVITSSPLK
# [3] = biological target: T1, thrombin; assay: Kapp IIa/hep relative to plasma.at3
# [4] = biological target: T2, factor Xa; assay: Kapp fXa/hep relative to plasma.at3
# [5] = biological target: T1, thrombin; assay: Kapp IIa/prog relative to plasma.at3
# [6] = biological target: T2, factor Xa; assay: Kapp fXa/prog relative to plasma.at3
# [7] = biological target: T1, thrombin; assay: thrombin +hep: pseudo-first-order loss of chromogenic activity with heparin
# Method: (§1) Polybrene was added with the chromogenic substrate to quench the heparin dependent reaction. The observed pseudo-first-order rate constants were calculated for each heparin (1 nM-5 nM) concentration from the slope of the log of residual proteinase activity vs. time. This was plotted against the heparin concentration to calculate the second-order rate constant for the inhibition by the heparin-ATIII complex, (Kₕₑₚ) from the equation Kobs=Kₕₑₚ[H]ₒ([AT]ₒ/[AT]ₒ+Kd)+Kuncat[AT]ₒ
# [8] = biological target: T2, factor Xa; assay: factor Xa +hep: pseudo-first-order loss of chromogenic activity with heparin
# Method: as §1
# [9] = biological target: T1, thrombin; assay: thrombin prog: pseudo-first-order loss of chromogenic activity, no heparin, 25 C
# Method: (§2) Polybrene was added with the chromogenic substrate to quench the heparin dependent reaction. […] This was plotted against the heparin concentration to calculate the second-order rate constant for the inhibition by the heparin-ATIII complex, (Kₕₑₚ) from the equation Kobs=Kₕₑₚ[H]ₒ([AT]ₒ/[AT]ₒ+Kd)+Kuncat[AT]ₒ
# [10] = biological target: T2, factor Xa; assay: factor Xa prog: pseudo-first-order loss of chromogenic activity, no heparin, 25 C
# Method: as §2
IC50 IIa/UFH; HCA #2 [1],IC50 IIa/UFH; HCA #3 [1],IC50 IIa/UFH; HCA #4 [1],rsd. IIa catG; CA #12; stg1 conc 200 [1],rsd. IIa catG; CA #14; stg1 conc 200 [1],rsd. IIa catG; CA #15; stg1 conc 200 [1],rsd. IIa hne; CA #14; stg1 conc 200 [1],rsd. IIa no add; CA #14; stg1 conc 200 [1],IC50 fXa/UFH; HCA #4 [2],rsd. Xa catG; CA #14; stg1 conc 200 [2],rsd. Xa hne; CA #14; stg1 conc 200 [2],rsd. Xa no add; CA #14; stg1 conc 200 [2],Kapp as a percentage of the plasma ATIII value [3],Kapp as a percentage of the plasma ATIII value [4],Kapp as a percentage of the plasma ATIII value [5],Kapp as a percentage of the plasma ATIII value [6],kapp (apparent second-order inhibition rate constant) [7],kapp (apparent second-order inhibition rate constant) [8],kapp (apparent second-order inhibition rate constant) [9],kapp (apparent second-order inhibition rate constant) [10],also measured,Binder
0.065 µM,0.047 µM,0.05 µM,1%,1%,1%,2%,2%,0.013 µM,1%,1%,2%,34%,217%,38%,510%,2.01e+06 M⁻¹ s⁻¹,1.25e+06 M⁻¹ s⁻¹,2680 M⁻¹ s⁻¹,10700 M⁻¹ s⁻¹,rsd. IIa hne; CA #15; stg1 conc 200 [1]: 6%; rsd. IIa no add; CA #15; stg1 conc 200 [1]: 0%; IC50 fXa/UFH; HCA #2 [2]: 0.02 µM; IC50 fXa/UFH; HCA #3 [2]: 0.016 µM; rsd. Xa catG; CA #12; stg1 conc 200 [2]: 1%; rsd. Xa catG; CA #15; stg1 conc 200 [2]: 0%; rsd. Xa hne; CA #15; stg1 conc 200 [2]: 1%; rsd. Xa no add; CA #15; stg1 conc 200 [2]: 0%,B1
,,0.025 µM,,1%,,4%,1%,0.022 µM,1%,2%,0%,91%,145%,41%,256%,5.37e+06 M⁻¹ s⁻¹,831000 M⁻¹ s⁻¹,2920 M⁻¹ s⁻¹,5360 M⁻¹ s⁻¹,,B2
0.075 µM,0.043 µM,0.055 µM,1%,1%,1%,3%,7%,0.04 µM,2%,4%,2%,36%,85%,104%,1150%,2.11e+06 M⁻¹ s⁻¹,489000 M⁻¹ s⁻¹,7310 M⁻¹ s⁻¹,24100 M⁻¹ s⁻¹,rsd. IIa hne; CA #12; stg1 conc 200 [1]: 2%; rsd. IIa hne; CA #15; stg1 conc 200 [1]: 4%; rsd. IIa no add; CA #12; stg1 conc 200 [1]: 1%; rsd. IIa no add; CA #15; stg1 conc 200 [1]: -1%; IC50 fXa/UFH; HCA #2 [2]: 0.065 µM; IC50 fXa/UFH; HCA #3 [2]: 0.046 µM; rsd. Xa catG; CA #12; stg1 conc 200 [2]: 1%; rsd. Xa catG; CA #15; stg1 conc 200 [2]: 0%; rsd. Xa hne; CA #12; stg1 conc 200 [2]: 1%; rsd. Xa hne; CA #15; stg1 conc 200 [2]: 1%; rsd. Xa no add; CA #12; stg1 conc 200 [2]: 1%; rsd. Xa no add; CA #15; stg1 conc 200 [2]: 1%,B3

# — patent US20060259987A1 (UNIVERSITY OF UTAH RESEARCH FOUNDATION, published 2006)
